Data as given in US11066655B2, “RNA polymerase, methods of purification and methods of use” (President and Fellows of Harvard College, priority 2013, dated 2021).

Experiments:
[1] = test system: dsDNA template (1, 2 or 3); assay: Incorporation of 2′-F-dNTP into RNA by wild-type Syn5 RNA polymerase (Mg buffer); format: biochemical
From the text: FIG. 24 depicts gels showing incorporation of 2′-F-dNTP into RNA using WT Syn5 RNA polymerase.
According to certain aspects of the invention, wild-type Syn5 RNA polymerase was used in methods described herein for high yield 2′-F RNA synthesis, with DNA templates that allow incorporation of fewer than three 2′-F-dNTP into the first 12 nt of a full-length transcript and in a non-consecutive manner. Transcription initiation (synthesis of 2-12 nt RNA) can be the most unstable stage for an RNA polymerase. Once transcripts are extended over 12 nt, transcription elongation is robust and stable. To determine whether the incorporation of 2′-F-dNTP during the transcription initiation stage is a rate-limiting step of Syn5 RNA polymerase, Syn5 RNA polymerase transcription in the presence of 2′-F-dNTPs on DNA templates that allow various amounts of 2′-F-dNTP incorporation into the first 12 nt of the RNA products was compared. The following conditions were used.
The reaction components were incubated at 37° C. for 4 hrs. Then 0.4 µl of the reaction mixture were loaded onto 10% TBE gel and stained with ethidium bromide. […] See FIG. 1. lane 1 vs 2; 8 vs 7; 15 vs 14. […] Template 1 has also 3Gs but two of them are consecutive. […] See FIG. 1. lane 10 vs 7; lane 17 vs 14). […] Although there are only 2 Cs in the 1-12 nt region of template 1, two consecutive incorporations during the initiation stage prevented the efficient synthesis of RNA products containing 2′-F-dCMP. With template 3 starting with C, 2′-F-dCTP was still efficiently incorporated.

[2] = test system: DNA templates with Syn5 promoter; assay: Gel assay of transcription products with MgCl2, FeCl2 or MnCl2 as cofactor; format: biochemical
Experimental: FIG. 6 depicts a comparison of Syn5 RNAP transcription products in the presence of MgCl2, FeCl2 or MnCl2 on denaturing gels. Reactions contained 200 µM ATP, GTP, UTP and 10 µM[…]-^32P]CTP, 50 nM Syn5 RNAP, DNA templates (1 µM template as shown in FIG. 3A for 71 nt runoff transcript, 4 nM template 3 as shown in FIG. 3C for 225 nt product, or 1 µM template 1 as shown in FIG. 3B for 37 nt runoff transcript).
For the gel assay results shown in FIGS. 1, 2, 3, and 13, reaction mixtures (20 μl) contained 40 mM Tris-HCl (pH 7.9), 6 mM MgCl2, 2 mM spermidine, 10 mM DTT, 200 µM[…]P, GTP and UTP, 10 µM [[…]-^32P]CTP, 1.5 U/µl RNaseOUT™ recombinant ribonuclease inhibitor (Invitrogen), 100 nM Syn5 or T7 RNAP, and DNA templates as described in the figure legends (either 2 nM phage genomic DNA, 4 nM purified PCR products, or 1 µM synthetic dsDNA fragments). Reaction mixtures were incubated at 24° C. for 30 min. The reaction mixtures described in FIG. 6 contained 40 mM Tris-HCl (pH 8.0), 200 µM[…]P, GTP and UTP, 10 µM [[…]-^32P]CTP, 1.5 U/µl RNaseOUT™, 50 nM Syn5 RNAP, DNA templates, and various amounts of MgCl2, FeCl2, MnCl2 and KCl as described in the figure legends. After 30 min incubations at 24° C., one unit of RQ1 RNase-Free DNase (Promega) was added to each reaction mixture and incubated for an additional 20 min at 37° C. to remove the DNA templates. Reactions were then terminated by the addition of 8 µl of loading dye containing 95% formamide and 40 mM EDTA. Samples were then heated at 90° C. for 1 min and loaded onto either 10% or 25% TBE-Urea denaturing gels. After electrophoresis, gels were dried and analyzed using a Fuji BAS 1000 Bioimaging Analyzer.

B1: Syn5 RNAP: single subunit DNA-dependent RNA polymerase from marine cyanophage Syn5, amino acid sequence SEQ ID NO:23 (protein)
chain: MSFDLIARQLQRETEAAELARKRLQDARREANERSYASSNIESRKAIATFLDPIAQRIGERLFTLRRGTGAVDAAEVYKHLKNADHHHLALITMKTALDVLGKDPEPQIQQLTTAIGRNIQLELRLTYYAEENPELYKQASRFFHAGTGTRQKATVIKLKFNREGIEWDQWSRVTCHKVGQWLMLAMADVTGWIERATDRTSGGRKTKTRICYSREFLQHRDTILAAAEQLAFCQWPMLCPPIEWSNDHNGGYLSEQIRRVNPLIRKTGPLGTRKQGDIPLAMLNNLQGQAYKVNPEVLDIANHCYESNVTVGKFIRHAPLPVPPSPGEDCTEDQLTAYKRARREAEDFNAQISQKNWRTTEVMYVARKYADEASFWMPASFDYRGRVYFLNTALNPQGTDFDKALLYFAEEGPVNEWWLSFHVATTYGLDKETMVNRVQWARDNHELIDRIASDPVRHTEWHDADEPWCFLAACLEYKACVIDGTKQTSGLPIGIDATCSGLQHLAAMTRCGRTAALVNVTPTDKPADAYKTVAQASLKHLPKEQHEWITRKVTKRPVMCTPYGVTMSSARGYIRDQLVKDGHKEDLRSPGVLNGIVKAIFNEAIPEVIPGPVQVMAWLKRSAGQIIDRGDSTITWTTPSGFEVVQDLKKSKTYEVKTRIMGGARIKLQVGDGFTDEPDRDHHKSALAPNVVHSNDASLLHLTFAFWDKPFTVIHDCVLGRSCDMDQMGSDIRLHFAEMYKADVMQDWADQVGVELPVDLIKNTLDIDSVNQSLYFFS
modifications: Amino acid sequence of a cyanophage Syn5 RNAP
[1]; template 1 and 3
  full-length products containing 2′-F-dUMP: low yield
[1]; template 2
  incorporation of 2′-F-dUTP: efficient incorporation
[1]; template 2 and 3
  incorporation of 2′-F-dCTP: incorporated very well
[1]; templates 1, 2, 3
  full-length transcript with ATP replaced by 2′-F-dATP: none of them produces full-length transcript
[1]; transcription elongation
  discrimination against 2′-F-dCTP: no intrinsic discrimination against 2′-F-dCTP
[2]; 2 mM FeCl2
  transcription with ferrous as cofactor: produce a 71 nt runoff transcript identical to that produced in the presence of MgCl2
[2]; FeCl2
  longer transcripts (e.g. 225 nt) in the presence of iron: did not produce longer transcripts
[2]; manganese 0.25 to 1 mM versus magnesium
  maximum yield of short runoff products: higher in the presence of manganese
[2]; manganese versus magnesium
  N+1 runoff product: significantly higher with manganese than that with magnesium
[2]; versus magnesium
  efficiency of iron as a cofactor: several times less than that of magnesium
